{
  "source": "patent US20180230200A1",
  "about": "(CITY OF HOPE, published 2018)",
  "binders": {"B1": {"name": "18F10 (antibody, V domains shown)", "VH": "QVTLKESGPGILQPSQTLSLTCSFSGFSLSTYGIGIGWIRQPSGKGLEWLAHIWWNDNKNYNTALKSRLTISKDPSNNQVFLKIASVDTADTATYFCARTGYFDVWGAGTTVTVSS", "VL": "DVVLTQTPLSLPVSLGDQVSISCSSSQSLVHSNGNTYIHWYLQKPGQSPKLLIYTVSNRFSGVPDRFSGSGSGTDFTLKISRVEAEDLGLYFCSQSTHVPYTFGGGTKLEIK", "notes": "also called NAb 18F10"}},
  "key": {"[1]": {"molecular_target": "T1, UL128/UL131A co-expressed from MVA in BHK-21 cells (human cytomegalovirus, UniProt P16837 28-171; F5HET4 19-129)", "T1 construct": "whole, on cells", "assay": "intracellular FC, MVA-infected BHK-21", "experimental": "(§1) NAb subunit specificity was evaluated by staining BHK-21 cells infected with different MVA recombinants. One or more vectors were used to co-infect BHK-21 at an MOI of 5. […] Four hours post infection cells were fixed and permeabilized using Cytofix/Cytoperm solution (BD Biosciences). NAbs (1 mg/ml) were diluted 1:500 in perm/wash buffer (BD) and added to the cells for 1 hour at 4° C. […] Cells were washed again and resuspended in PBS/0.1% BSA. Fifteen thousand events were collected using the Gallios Flow Cytometer (Beckman Coulter, Miami, Fla., USA) and analyzed with FlowJo Software (Tree Star, Ashland, Oreg., USA). Uninfected cells and cells infected with MVA-Venus were used as controls. GFP expression was analyzed for confirming MVA infection since all the constructs contain a GFP expression cassette (36, 62).\n(§2) In order to determine the antigen specificity of the vaccine-derived NAbs, intracellular flow cytometry (FC) staining of permeabilized BHK-21 cells infected with MVA expressing single subunits or combinations of two or more subunits of the PC was evaluated."}, "[2]": {"molecular_target": "T2, UL128/UL130/UL131A co-expressed from MVA in BHK-21 cells (human cytomegalovirus, UniProt P16837 28-171; P16772 1-214; F5HET4 19-129)", "T2 construct": "whole, on cells", "assay": "intracellular FC, MVA-infected BHK-21", "experimental": "as §1, §2"}, "[3]": {"molecular_target": "T3, UL131A expressed from MVA in BHK-21 cells (human cytomegalovirus, UniProt F5HET4 19-129)", "T3 construct": "whole, on cells", "assay": "intracellular FC, MVA-infected BHK-21", "experimental": "as §1, §2"}, "[4]": {"molecular_target": "T4, gH/gL/UL128/UL130/UL131A pentamer complex expressed from MVA-PC in BHK-21 cells (human cytomegalovirus, UniProt P12824 24-743; P16832 31-278; P16837 28-171; P16772 1-214; F5HET4 19-129)", "T4 construct": "whole, on cells", "assay": "FC competition, MVA-PC BHK-21; unlabelled row Ab; competitor: biotinylated 2-80; note: test concentration or dose not given here"}, "[5]": {"molecular_target": "T4, gH/gL/UL128/UL130/UL131A pentamer …", "assay": "FC competition, MVA-PC BHK-21; unlabelled row Ab; competitor: biotinylated 18F10"}, "[6]": {"molecular_target": "T4, gH/gL/UL128/UL130/UL131A pentamer …", "assay": "FC competition, MVA-PC BHK-21; unlabelled row Ab; competitor: biotinylated AP86; note: test concentration or dose not given here"}, "gH of HCMV strain TB40/E": {"molecular_target": "gH of HCMV strain TB40/E (human cytomegalovirus strain TB40/E)", "assay": "cell-based or functional assay"}, "[7]": {"molecular_target": "T4, gH/gL/UL128/UL130/UL131A pentamer …", "assay": "FC competition, MVA-PC BHK-21; unlabelled row Ab; competitor: biotinylated 13B5"}, "[8]": {"molecular_target": "T4, gH/gL/UL128/UL130/UL131A pentamer …", "assay": "FC competition, MVA-PC BHK-21; unlabelled row Ab; competitor: biotinylated 1B2"}, "[9]": {"molecular_target": "T4, gH/gL/UL128/UL130/UL131A pentamer …", "assay": "FC competition, MVA-PC BHK-21; unlabelled row Ab; competitor: biotinylated 21E9; note: test concentration or dose not given here"}, "[10]": {"molecular_target": "T4, gH/gL/UL128/UL130/UL131A pentamer …", "assay": "FC competition, MVA-PC BHK-21; unlabelled row Ab; competitor: biotinylated 62-11; note: test concentration or dose not given here"}, "gH of HCMV strain Towne": {"molecular_target": "T5, gH of HCMV strain Towne (human cytomegalovirus strain Towne, UniProt P17176 30-742)", "T5 sequence": "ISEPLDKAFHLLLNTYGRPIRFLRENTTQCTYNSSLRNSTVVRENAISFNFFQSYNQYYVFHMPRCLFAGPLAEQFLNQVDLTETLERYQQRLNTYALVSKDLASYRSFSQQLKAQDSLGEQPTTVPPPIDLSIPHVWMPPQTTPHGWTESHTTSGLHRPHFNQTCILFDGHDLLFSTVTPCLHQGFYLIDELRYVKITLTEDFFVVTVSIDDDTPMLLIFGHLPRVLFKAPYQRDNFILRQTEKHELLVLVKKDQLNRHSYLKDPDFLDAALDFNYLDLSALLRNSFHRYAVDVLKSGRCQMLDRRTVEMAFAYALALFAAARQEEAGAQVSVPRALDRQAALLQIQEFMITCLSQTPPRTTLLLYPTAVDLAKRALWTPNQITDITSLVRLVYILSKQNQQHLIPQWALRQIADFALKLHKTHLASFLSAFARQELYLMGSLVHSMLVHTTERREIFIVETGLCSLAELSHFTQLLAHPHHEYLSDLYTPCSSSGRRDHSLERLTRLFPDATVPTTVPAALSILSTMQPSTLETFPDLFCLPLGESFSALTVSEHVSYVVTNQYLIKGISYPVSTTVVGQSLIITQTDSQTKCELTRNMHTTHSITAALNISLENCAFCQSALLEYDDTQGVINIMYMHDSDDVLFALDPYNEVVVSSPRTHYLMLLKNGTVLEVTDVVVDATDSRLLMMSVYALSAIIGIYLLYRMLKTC", "assay": "immunoblot, lysates of HCMV-infected MRC-5"}, "[11]": {"molecular_target": "T4, gH/gL/UL128/UL130/UL131A pentamer …", "assay": "FC competition, MVA-PC BHK-21; unlabelled row Ab; competitor: biotinylated 21F6"}, "[12]": {"molecular_target": "T4, gH/gL/UL128/UL130/UL131A pentamer …", "assay": "FC competition, MVA-PC BHK-21; unlabelled row Ab; competitor: biotinylated 54E11"}},
  "data": [
    {"binder": "B1", "values": [
      {"measurement": "binding result", "setting": "[1]", "result": "no binding"},
      {"measurement": "binding result", "setting": "[2]", "result": "no binding"},
      {"measurement": "binding result", "setting": "[3]", "result": "no binding"},
      {"measurement": "Binding Inhibition (%)", "setting": "[4]", "result": 0, "unit": "%"},
      {"measurement": "Binding Inhibition (%)", "setting": "[5]", "result": 100, "unit": "%"},
      {"measurement": "Binding Inhibition (%)", "setting": "[6]", "result": 100, "unit": "%"},
      {"measurement": "IC50, inhibition of TB40/E cell-to-cell spread in ARPE-19", "setting": "gH of HCMV strain TB40/E", "result": 95, "unit": "µg/mL"},
      {"measurement": "IC50, neutralization of TB40/E infection of ARPE-19", "setting": "gH of HCMV strain TB40/E", "result": 0.763, "unit": "µg/mL"},
      {"measurement": "IC50, neutralization of TB40/E infection of CTB", "setting": "gH of HCMV strain TB40/E", "result": 8.8, "unit": "µg/mL"},
      {"measurement": "IC50, neutralization of TB40/E infection of HUVEC", "setting": "gH of HCMV strain TB40/E", "result": 1.49, "unit": "µg/mL"},
      {"measurement": "IC50, neutralization of TB40/E infection of MRC-5", "setting": "gH of HCMV strain TB40/E", "result": "> 25", "unit": "µg/mL"},
      {"measurement": "Binding Inhibition (%)", "setting": "[7]", "result": 0, "unit": "%"},
      {"measurement": "Binding Inhibition (%)", "setting": "[8]", "result": 0, "unit": "%"},
      {"measurement": "Binding Inhibition (%)", "setting": "[9]", "result": 0, "unit": "%"},
      {"measurement": "Binding Inhibition (%)", "setting": "[10]", "result": 0, "unit": "%"},
      {"measurement": "binding result", "setting": "gH of HCMV strain Towne", "result": "no binding (tested: 10 µg/ml)"},
      {"measurement": "Binding Inhibition (%)", "setting": "[11]", "result": 0, "unit": "%"},
      {"measurement": "Binding Inhibition (%)", "setting": "[12]", "result": 0, "unit": "%"}
    ]}
  ]
}
